From a protein production outcome set (Wang et al. 2014)

Test: label from the status in PepcDB records

| Sequence | protein production |
| --- | --- |
| MQYLSILEALGGLGVFILGMKTMSEGLQKIAGDRFRRHLERIAGNRLTAALLGSTLSSLLQSSSAACIITVGFINAGLISLYQALGILLGTGIGTTLAVQFIAFKISSFALPAVFVGVCLRCFLRRRRWVNAGELILGAGLLFLGLRIMESNLQPLQEYAIVFTHQDMFVSKRIAAVLFGATLTLLVQSGSTAIAVIMALAGSSLVSFETGAAMVIGELLGTSVITAFASIGGTLEAKRTVFFYFMVNLLAVVVVMLVFPSYLSFVTYISPEDIASSAGISRVLANTHTLFSIMSAVIFLPLIGFFARTAPRIIPGSERASSVEARTVFIDPRVLNTPPIALLQARSELRRMAGISLTMYSEMVEQFFRYDARKAVGIRQKENAVDILQRDLTDFLVSLSRRELAPEASMEIPVMLQLIGELEHVADQSEAVLDYLRRKKEEKLLFSNAAMTEIRHLARTVEKLVDLAVETMDNPPPDAVEQGRSLRDDVGRQREAMLDGHIKRLSAGKCSVRAGIIYADMITAFVKIADSSVTIIETRKEFT | failed |
| MMCGGRGTRLDAAAEKPLFEVGGRAMVDHVRAALEAAGRIDTTHAAVSPHAPDTAAHLAATPLSLIETPGDGYVADLTAALDAVGTPVLTVAADLPLLAPAVVDTVVAAADGATTSACVPRALKHELGVSTDADADAWVPTGVNVVGGGDTEATHRSFDARLAVNVNHRSDAAVAARLLAATDRRNHPRLEHHHHHH | failed |
| SALTLLEDWCKGMDMDPRKALLIVGIPMECSEVEIQDTVKAGLQPLCAYRVLGRMFRREDNAKAVFIELADTVNYTTLPSHIPGKGGSWEVVVKPRNPDDEFLSRLNYFLKDEGRSMTDVARALGCCSLPAESLDAEVMPQVRSPPLEPPKESMWYRKLKVFSGTASPSPGEETFEDWLEQVTEIMPIWQVSEVEKRRRLLESLRGPALSIMRVLQANNDSITVEQCLDALKQIFGDKEDFGASQFRFLQTSPKIGEKVSTFLLRLEPLLQKAVHKSPLSVRSTDMIRLKHLLARVAMTPALRGKLELLDQRGCPPNFLELMKLIRDEEEWENTEAVMKNKEKPSGRGRGASGRQARAEASVSAPQATVQARSFSDSSPQTIQGGLPPLVKRRRLLGSESTRGEDHGQATYPKAENQTPGREGPQAAGEELGNEAGAGAMSHPKPWET | not failed |
| IDTNLLYVFFTSGSTGIPKGVSIAHKSVIDYTFWVCETFKFDENEILANQAPFYFDNSILDIFSSVKSGATLHLLPNHLFAFPNKILECLEKEKVSTIFWVPSVLIYFANTEALNNFSLNALKKMLFCGEIMPNKQLNIWRKHLPNALFANLYGPTEITDVCSFYIINRTFKDEEL | failed |
| MSAFDFNFQPSINQQDVLDFTDLRFIGKYENIVFLDSNVVSKNRISTYFIKCHHLKENLRKAKLENSLENRLKHYSKYKLLIIDEIGYLPIGSEAAKIFFQINRFKVLEHHHHHH | not failed |
| MLPSRKTKRVFSCDFTPGRKRRRCVVVPSSVSPVPENTTGADLLDSIPDDLVISILCKLGSTSRCPADFINVLLTCKRLKGLAMNPIVLSRLSPKAIAVKAHNWSEYSHRFLKRCVDAGSLEACYTLGMIRFYCLQNRGNGASLMAKAAISSHAPALYSLAVIQFNGSGGSKNDKDLRAGVALCARAAFLGHVDALRELGHCLQDGYGVPQNVSEGRRFLVQANARELAAVLSSGIQARSTWLSLSQPPPPVVPNHGQQTCPLLSDFGCNVPAPETHPANRFLADWFAVRGGDCPGDGLRLCSHAGCGRPETRKHEFRRCSVCGVVNYCSRACQALDWKLRHKMDCAPVQRWLEEGDGGEGNVQIDGNGNGDNVLLPMS | failed |
| MTPNKEDYLKCIYEIGIDLHKITNKEIAARMQVSPPAVTEMIKRMKSENLILKDKECGYLLTDLGLKLVSELYRKHRLIEVFLVHHLDYTSDQIHEEAEVLEHTVSDLFVERLDKLLGFPKTCPHGGTIPAKGELLVEINNLPLADIKEAGAYRLTRVHDSFDILHYLDKHSLHIGDQLQVKQFDGFSNTFTILSNDEDLQVNMDIAKQLYVEKIN | not failed |
| MLLSGWGKFVRWLLVLLSILVIIIGINLILDGVYGFGTFSTTQMYQVAKDPLIGVLIGILATALVQSSTTTTTLTVTAVGTGIVSVPVAIPIILGANIGTTITAMLVAFSYVGERREFKRAFTVAAMHVWFNVLVILVLFVVELLFHPFRTISGAIATEITLTTGGSLPTSGVMTKIFDPPTQLLGMNGLIGSIGNPSISAIVCLVVGTILILISVRAMSSQIRTITAATVTSIMDKVINPENSPKATILSNFWSFILGVLFTLMVTASSVTVASMQPVAASGVVKQKPLLGVILGANVGTTVTAMFATFAIVSDQGEFAIQAALIHLIVNFTGALLVLCIPQLANVIIHLAEKTANLTARSYSITLATIVTAYVLVPSAVLMIYFFI | failed |
| MLIPSKLHFPRRLHNAILRQRVLDTLENAMHYKLVLFRSPAGYGKTTMAAQWLSDKDATGWYSLDESDNDEYKFAKYFVQTISNATHTELSHSKALTEKRQFASLSSLFSQVFTELISFQDEAYIVLDDYHLITNDTIHLGLKFFLKHLPDNLTLVITSRSQPPLNTANLRVRDLLIEIDNQSLAFDQSETSLFFNQRLNENIDQEAITHVREHVEGWPSALQLIALHSIQNNQSLNNSAQVMAQLNHAHLWDYLAEEVFDHLDQETQQFLMRCAVFDHFNTTLLSKVTQRKDAQLLIENLNRFGLFINTNGEQGDWYKFHNLFAEFLTHQRQNHLAHEEIDLQKYAAEAWLEHDNIYQALRHAKNAKDDILIANILTQHGWHLFNNGELSLLETTISDLRPEVLFTSPRLVIIRAWLAQSQHNYLQVNDLLSEAQREMADRNIVLDRHMQGEIDALRAQVAINKNEPEAALAFAEKALEELETNKYRSRIVATSVIGEYHHVSGNLAQALALMQQTEKMAMTYGIYHQALWAILQQSEILMAQGFMQAAFDLQDNGFKLIEDQDLHQLPLHEFLLRSRAQIYWFWFRFDEAEQCTWKGLDVLSPFDETKHLRGYSMLARLAVARGELDKAERYLDKCQQLLGQSDYHIDWKANASSAQLFYWQAKNNSEAIQYWLAQAERPETRCNHFTQLQWRNIARAQFHLGDIDTAIETLQTSQTIAQQHKLITDINRNAILAAILLYENKQIDEAVEAMHLAIKQSNQTGIIGSFLMAGRNVLKPLGKLQQKGNVTELEKHRIEQLQKALSNNERSRSAHFDETFIEKVLNTPEVPELIRTSPLTHREWQVLGLIYSGFSNEQIAAEFDVAPTTIKTHIRNLYQKLNLPNRKAAIAMADELVGMMK | failed |
| MRFSRARTEEVLRALVHEIRAERLTFMAGSIAYHAFLSILPLLLLVLTFVQRTENVTLRASIVGIMEAVLTTQASGIIQQGLTEADASVSALGVGFLLWGSLRIFRGLDTAFSDIYETGASNTFLDQLGDGLVLLVTVAVAILSASALGSVLPETGSGPLWTVASGLVRAAGLFVVFYPMYYIFPDTDVSPLEAVPGVAFAAIGLTVAQVLFTAFKSGSTGGNIIASILVLLSWLYIIGLVILLGAAINAVLSNRSADVDIDPVVGEHSQQNTIRTTTMSREALLAELETLADRFQQGQGTITVEIADERTDIDCPETATVDRSSDVFGLDQSVALTLRWWPNEK | failed |
| MGSSMEEKVVAVIMVGGPTKGTRFRPLSLNIPKPLFPIAGQPMVHHPISACKRIPNLAQIYLVGFYEEREFALYVSAISNELKVPVRYLREDKPHGSAGGLYHFRNLIMEDSPSHIFLLNCDVCCSFPLPKMLEAHRGYGGIGTLLVIKVSPESASQFGELVADPVTNELLHYTEKPETFVSDRINCGVYVFTPEIFNAIGDVSTQRKDRATLKRVSSFEALQPATRIPTDFVRLDQDILSPLAGKKRLYTYETMDFWEQIKSPGMSLRCSGLYLSQFRLTSPQLLASGDGTRSAIVIGDVYIHPSAKVHPTAKIGPNVSISANARVGPGVRLMSCIILDDVEIMENAVVTNAIVGWKSSIGRWSRVQAEGVYNSKLGVTILGDSVAVEDEVVVTSSIVLPNKTLNVSVQDEIIL | failed |
| MLNPFEKLQIPPKANQTIDTMLKRLPKIGGTTVRDREIRRLKEYYERIKKYYDFVEQFPKIDELHPFYLEATRIMTDINKLRICLSVTKKTSVISMKILKKYINQIRKSPENESNRIMRQAFGRVSSVLRKSSECIDRVIDVAKELKKIQGIDPTLPTIVVAGPPNVGKSTLVSKISTAKPEIASYPFTTKEVHVGHVILDDFRIQVIDTPGILDRPEAERNRIERKATNAIRNLNGIIVFMFDSSISSVLSVEGQIELFREVKLLKKIVIPVINKIDEKYEEYYKKIVDFLLSEGNEWHEISAEKGIGIDKLKEELFNLVKSSGTNEVSRD | failed |
| MQRQGSGGGSAVIRVRVAGGVLLAAHLMLVVWITLRPLDVPWVSPANLHPFAGIRADLALGPREAVRRIGEGLGLLAPLGVLLPMVAGRLAVSPLASLTRTVAAGALISLGIELLQTGVPGQVVDVDSLLLNTVGVALAHLAIVPAGRARLRRRAETRRRAALGREELSQGLTPTIPRVGIAP | failed |
| MMEVGILPVHVLYVFFIGAIILFMLLRKDTTFISLFGIFIISLWASHSLSASVSSLFHSFIYAAGELLPTIFIICFIVSMSDLLTKTGINEAMISPFASLVRGPVTAYWLIGGLMFAISLFFWPSPGVALIGAVLLPAAARAGLTPLAAAMAMNLFGHGFALSGDFVIQAAPKLTADAAGIPVGDVVSASIPLVLIMGVTTTTAAFIMIQRERKKQEHPTSFSPVLSGEQDNSLYLPKRLRSILAFLIPLAFLADIACMLLFNLQGNDATALIGGSAICILFTVHFFVYKHKGLEKITGYFIDGFKFGFKVFGPVIPIAAFFYLGDSGYESILGTSLPKGSHGIVNDLGIALSHMMPMSKELAATALTAAGAITGLDGSGFSGISLAGSIAKLFSSALHADPAILTALGQISAIWVGGGTLVPWALIPAAAICKVDPFELARKNFIPVAIGLLVTTLAAVMML | failed |
| MKIAVDAMGGDNAPQAIVEGVMLAKQDFPDIEFQLYGKEAEIKKYITDEKNITIIHTDEKIASDDEPVKAIRRKKTASMVLAAQAVKNGEADAIFSAGNTGALLAAGLFIVGRIKNVERPGLMSTLPVMGEPDKGFDMLDLGANADNKPEHLVQYAVLGSFYAEKVRNVQNPRVGLLNNGTEETKGSELTKKAFELLAADETINFVGNVEARELLNGVADVVVTDGFTGNAVLKSIEGTAMNMMSLLKTAILSEGVKGKMGALLLKNALHGMKDEMDYSKHGGAVLFGLKAPVIKTHGATGPDAVRYTIRQIHTMLETQVVPQLVEYYEGKAE | not failed |
| MTSFLSFSAISAHPPTFSGASFRPRSFSPRLFKSCVKCTYAEAGLSSASWSAPIDIVADVKSERVVVLGGNGFVGSAICKAAISNGIEVVSVSRSGRPNFEDSWLDQVTWVTGDVFYLNWDEVLLGATAVVSTIGGFGNEEQMKRINGEANVTAVNAAKDFGVPKFVLITVHDYNLPPFILSNGYFTGKRNAEAELLSKYPTSGVVLRPGFIYGKRKVNGIEVPLDLVGEPLDKIYDSAERFIRPLRSLPASDLILAPPVNVDDLALAVINAVKDDDFFGIFTIEQIKEAAAKMRA | failed |
| MSLAHKFDPSKIKKLDDPSRLELFDPEKVLKEFGLKEGMTVLDVGTGAGFYLPYLSKMVGEKGKVYAIDVQEEMVNYAWEKVNKLGLKNVEVLKSEENKIPLPDNTVDFIFMAFTFHELSEPLKFLEELKRVAKPFAYLAIIDWKKEERDKGPPPEEVYSEWEVGLILEDAGIRVGRVVEVGKYCFGVYAMIVKQEEENPLMNVPFKIPPGEGHHHHHH | not failed |
| MRWFILCLRKYVDFKGRARRKEFWLFTLFYLIALVIPPAVIIPIAVIYRHTIDIALCIRICVVVEILVIFSLLLPAYAVTVRRLHDTNRSGLWVIASIVPRVLAEGLGVIFGQKWLIQIAEGEFPTLLLINMFLLLIDLCVSILILVMMCERGTEGENRFGPDPLSDGREVLMEPEPGK | failed |
